Tests used:
Conditions in all cases: 25 mM Tris-HCl pH 7.5, 2 mM MgCl2, 100 mM KCl (FP, 21 C) or 100-400 mM KCl (BLI, IgG on Protein A, 25 C)
J2 IgG [1] = assay: fluorescence polarization
J2 IgG [2] = assay: BLI
J2 IgG HC Y54F = assay: BLI
J2 IgG HC Y50F = assay: BLI
J2 IgG HC Y54A = assay: BLI
J2 IgG HC Y52F = assay: BLI
J2 IgG LC Y31F = assay: BLI
J2 IgG LC Y31A = assay: BLI
J2 IgG LC Y38F = assay: BLI
J2 IgG HC A30P = assay: BLI
J2 IgG [3] = assay: competition FP

Sequence: GGCAAGGGUAUCAUGGCGGACGACCGGGGUUCGAACCCCGGAUCCGGCCGUCCGCCGUGAUCCAUGCGGUUACCGCCCGCGUGUCGAACCCAGGUGUGCC [VA-I RNA]
- Kd (J2 IgG [1]): 32 nM

Sequence: GUUGUAAAGAAGGU / ACCUUCUUUACAAC [14-bp dsRNA]
- Kd (J2 IgG [2]): 2100 nM

Sequence: GUUGUAAAGAAGGUCAAUAU / AUAUUGACCUUCUUUACAAC [20-bp dsRNA]
- Kd (J2 IgG HC Y54F): 710 nM
- Kd (J2 IgG [2]): 120 nM
- Kd (J2 IgG HC Y50F): 430 nM
- Kd (J2 IgG HC Y54A): 300 nM
- Kd (J2 IgG HC Y52F): 220 nM
- Kd (J2 IgG LC Y31F): 360 nM
- Kd (J2 IgG LC Y31A): 940 nM
- Kd (J2 IgG LC Y38F): 150 nM
- Kd (J2 IgG HC A30P): 120 nM

Sequence: GUUGUAAAGAAGGUCAAUAUUGUACCAAAC / GUUUGGUACAAUAUUGACCUUCUUUACAAC [30-bp dsRNA]
- Kd (J2 IgG [2]): 12 nM

Sequence: GUUGUAAAGAAGGUCAAUAUUGUACCAAACUUGAUGGAAA / UUUCCAUCAAGUUUGGUACAAUAUUGACCUUCUUUACAAC [40-bp dsRNA]
- Kd (J2 IgG [2]): 80 nM

Sequence: GUUGUAAAGAAGGUCAAUAUUGUACCAAACUUGAUGGAAAAGAACAACGU / ACGUUGUUCUUUUCCAUCAAGUUUGGUACAAUAUUGACCUUCUUUACAAC [50-bp dsRNA]
- IC50 (J2 IgG [3]): 17 nM
- Kd (J2 IgG [2]): 22 nM

— publication doi:10.1101/2025.05.09.649859
